Source: PMC7859441
Starred links: 1 amine or outer side, 2 acyl side, 3 side chain; linkers in the order of their positions; H or OH if unused. Non-standard residues stand in square brackets, D forms with d. No end group written: not given here. βAsp = O=C(O)[C@H](CC(=O)[*:2])N[*:1]

How the values were obtained:
[1] = target: zebrafish Pcmtl (protein L-isoaspartyl methyltransferase paralog) (zebrafish)
[2] = target: zebrafish Pcmt (protein L-isoaspartyl methyltransferase) (zebrafish) (UniProt Q92047)
Sequence of UniProt Q92047 (Q92047 whole entry): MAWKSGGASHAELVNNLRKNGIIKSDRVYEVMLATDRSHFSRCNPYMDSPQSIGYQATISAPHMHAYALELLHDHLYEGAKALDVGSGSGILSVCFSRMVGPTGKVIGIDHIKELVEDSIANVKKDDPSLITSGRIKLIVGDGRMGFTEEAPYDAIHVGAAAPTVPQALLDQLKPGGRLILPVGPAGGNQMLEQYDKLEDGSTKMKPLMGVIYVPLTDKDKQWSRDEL

KM for the methyl acceptor peptide substrate, isoaspartyl methyltransferase activity (methanol vapor diffusion assay, 30°C, 0.2 M Bis-Tris pH 6.0, 14.5 μM SAM, 0.2–60 μM peptide) [1]: 3.6 μM
KM for the methyl acceptor peptide substrate, isoaspartyl methyltransferase activity (methanol vapor diffusion assay, 30°C, 0.2 M Bis-Tris pH 6.0, 14.5 μM SAM, 0.2–60 μM peptide) [2]: 4.2 μM
Binder: KASA[βAsp]LAKY [isoaspartyl substrate peptide KASAisoDLAKY]
